Data from publication PMC10520873, “Biochemical investigation of the tryptophan biosynthetic enzyme anthranilate phosphoribosyltransferase in plants” (The Journal of Biological Chemistry, 2023).

Substrate: Nc1c(O)cccc1C(=O)O
Experiment: purified protein
Assay type: biochemical, Physcomitrium patens
Details: 1 mM PR-PPi, 45 mM imidazole HCl pH 7.4, 30 °C, 3-HAA 0-0.5 mM

B1: PpPAT1 (Physcomitrium patens) (protein)
chain: MAAALASQRTWLPSSSVGPFRGSFATAPASSPRVLGVPRKFAVESGKWEVLVRNVRAQSSTVTVPARTLSIPQVLEQLIQGTNLTQAQTEEVMETLLADANPAIIGAFLALLRAKGETLDEVTGLASAMLSRAIPVRTVPGSLDIVGTGGDGANTVNISTGSCILAAACGAKVAKHGSRSSSSACGSADVLETLGVAIDLGPEGVAKCVEDVGVGFMFAPTYHPAMKVVAPVRRSLKIKTAFNILGPMLNPSRAPHSIVGVYHDNLVEKMAKILQHFGTKRTLVVHCHGLDEMSPLGGGRVLEVTQDKIESFVFDPLNFGIPRCTLEDLKGGNADFNAKSLRNVFAGEPGPIADSLILNAAAGIMACGLVKDLGEGVSLARDVLRSGRANTVLDNWISLSQKLKAEEVSE
notes: codon-optimized gene in pET28a, His-tagged, E. coli BL21 (DE3), Ni-NTA
- Km: 99.71 ± 11.2 µM
- kcat: 0.0533 ± 0.00167 s⁻¹
- kcat/Km: 537 M⁻¹ s⁻¹
